From patent US20190000964A1

Tests used:
[1] = biological target: human CCR5 receptor (hCCR5) (human), P51681; assay: inhibition of gp120/sCD4 complex binding to CCR5-expressing Cf2Th cells by competing peptide
[2] = biological target: human CCR5 receptor (hCCR5) (human), P51681; assay: inhibition of gp120CM235/sCD4 binding to Cf2Th/synR5 cells (FIG. 4B)
[3] = biological target: human CCR5 receptor (hCCR5) (human), P51681; assay: inhibition of gp120CM235/sCD4 binding to GHOST CD4.CCR5 cells (FIG. 4C)
[4] = biological target: human CCR5 receptor (hCCR5) (human), P51681; assay: inhibition of gp120BaL/sCD4 binding to Cf2Th/synR5 cells (FIG. 4A)

Sequence of human CCR5 receptor (hCCR5) (human), P51681 (P51681 whole entry): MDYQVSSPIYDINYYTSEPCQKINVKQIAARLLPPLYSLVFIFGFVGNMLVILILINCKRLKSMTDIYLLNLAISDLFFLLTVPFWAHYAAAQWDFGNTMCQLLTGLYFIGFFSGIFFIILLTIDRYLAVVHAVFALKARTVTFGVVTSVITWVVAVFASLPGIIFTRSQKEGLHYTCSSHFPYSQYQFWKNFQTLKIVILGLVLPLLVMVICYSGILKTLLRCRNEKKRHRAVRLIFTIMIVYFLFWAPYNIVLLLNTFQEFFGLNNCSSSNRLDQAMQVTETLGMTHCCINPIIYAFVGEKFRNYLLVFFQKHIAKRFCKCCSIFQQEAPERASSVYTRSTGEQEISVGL

Binder NNRYR (modifications not checked) has an EC50 [1] of 0.2 nM.

With TSNYS (modifications not checked) the EC50 [1] was 0.2 nM.

Work on YSSYR (modifications not checked) yielded an EC50 [1] of 0.6 nM.

For SSTYR (modifications not checked), the EC50 [1] was 0.1 nM.

Binder NTSYR (modifications not checked) has an EC50 [1] of 0.1 nM.

NSEYR (modifications not checked) was tested, and the EC50 [1] was 0.08 nM.

NSSYT (modifications not checked) was tested, and the EC50 [1] was 0.2 nM.

TTSYR (modifications not checked) was tested, and the EC50 [1] was 0.1 nM.

NSSYR (modifications not checked) was tested, and the EC50 [1] was 0.04 nM.

Work on NSNYS (modifications not checked) yielded an EC50 [1] of 0.5 nM.

ASTTTNYT (modifications not checked) [DAPTA (Dala1-peptide T-amide)] showed an IC50 [2] of 0.32 nM, a percent inhibition of specific binding [2] greater than 80% and an IC50 [3] of 0.051 nM. It also gave an IC50 [4] of 0.055 nM.

Work on TISYR (modifications not checked) yielded an EC50 [1] of 0.4 nM.

Work on SSEYR (modifications not checked) yielded an EC50 [1] of 0.3 nM.

Work on TTSYT (modifications not checked) yielded an EC50 [1] of 0.05 nM.
